Values of other authors in patent publication US10316097B2, “Method for the treatment of epilepsy, epileptogenesis, seizures or convulsions by an anti-colony-stimulating factor 1 receptor (CSF-1R) antibody” (UCB BIOPHARMA SPRL, priority 2015, dated 2019).

Columns and labels:
[1] = systemic administration in rodents
[2] = tested on: TNF-α-driven inflammation in the brain; settings: systemic administration in rodents

etanercept
Crossing of the blood-brain barrier (BBB) [1]: does not cross the blood-brain barrier | Effect on TNF-α-driven inflammation in the brain [2]: does not affect
